The series deals with Factor X (FX), P00742.

“And” between values parts separate entries of the source, which are not always exact repeats. Equal entries are not always repeated.

In general, KM refers to the concentration of substrate that gives half-maximal velocity. Usually kcat stands for the maximal rate divided by the concentration of active sites. For orientation: kcat/KM means the turnover number divided by the Michaelis constant.

Sequence of Factor X (FX), P00742 (P00742 whole entry, looked up): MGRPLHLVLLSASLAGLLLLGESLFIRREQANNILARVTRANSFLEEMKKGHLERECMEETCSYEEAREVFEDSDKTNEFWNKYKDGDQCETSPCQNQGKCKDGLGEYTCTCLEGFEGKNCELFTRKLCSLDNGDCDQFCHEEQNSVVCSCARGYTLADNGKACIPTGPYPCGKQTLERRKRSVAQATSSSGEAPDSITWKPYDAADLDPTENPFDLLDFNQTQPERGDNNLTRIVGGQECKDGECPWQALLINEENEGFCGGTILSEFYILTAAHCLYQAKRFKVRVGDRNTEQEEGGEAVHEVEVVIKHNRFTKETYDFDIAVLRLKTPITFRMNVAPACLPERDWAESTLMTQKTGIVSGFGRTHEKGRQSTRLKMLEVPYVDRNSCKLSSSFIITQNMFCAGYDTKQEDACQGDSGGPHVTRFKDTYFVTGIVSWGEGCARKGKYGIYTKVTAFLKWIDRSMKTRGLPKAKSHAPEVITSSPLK

B1: FIXa-D104N/K106S/Y155F/R318Y/R338E/R403E/E410N (protein)
chain 1: not shown
chain 2: not shown
For B1, the “% of WT kcat/KM” value is 394% and 382%; the KM was found to be 48 nM; the KM for FX activation by FIXa in the Xase complex (FVIIIa/PC-PS/Ca2+), fluorogenic Spectrafluor FXa assay amounted to 48 nM; the kcat amounted to 8.5 s⁻¹.

B2: FIXa-Y155F/K247N/N249S/R318Y/R338E/R403E (protein)
chain 1: not shown
chain 2: not shown
With B2, the KM is 67.3 nM and the kcat came out at 5.7 s⁻¹.

B3: FIXa-D104N/K106S/N260S/R318Y/R338E/R403E/E410N (protein)
chain 1: not shown
chain 2: not shown
Take B3: the “% of WT kcat/KM (against Catalyst Biosciences WT FIXa), FX activation in the Xase complex” value came out at 196%; the KM was 61.1 nM; the KM (nM) for activation of FX by FIXa in the Xase complex (FVIIIa, PC/PS vesicles, Ca2+), fluorogenic Spectrafluor FXa assay came to 61.1 nM; the kcat/KM for FX activation by FIXa in the Xase complex (FVIIIa, PC/PS vesicles, Ca2+), indirect fluorogenic Spectrafluor FXa assay was 8.8e+07 M⁻¹ s⁻¹.

B4: FIXa-K247N/N249S/R318Y/R338E/R403E (protein)
chain 1: not shown
chain 2: not shown
Turning to B4, the KM is 53.6 nM and the kcat stood at 10.5 s⁻¹.

B5: FIXa-Y155F/N260S/R318Y/R338E/R403E/E410N (protein)
chain 1: not shown
chain 2: not shown
As for B5, the “% of WT kcat/KM (against Catalyst Biosciences WT FIXa), FX activation in the Xase complex” value is on record as 156%; the KM was found to be 83.9 nM; the KM (nM) for activation of FX by FIXa in the Xase complex (FVIIIa, PC/PS vesicles, Ca2+), fluorogenic Spectrafluor FXa assay stood at 83.9 nM; the kcat/KM for FX activation by FIXa in the Xase complex (FVIIIa, PC/PS vesicles, Ca2+), indirect fluorogenic Spectrafluor FXa assay came to 7e+07 M⁻¹ s⁻¹.

B6: FIXa-A103N/N105S/Y155F/R318Y/R338E/R403E/E410N (protein)
chain 1: not shown
chain 2: not shown
Regarding B6, the “% of WT kcat/KM” value is 283% and 274%; the KM worked out at 50.7 nM; the KM for FX activation by FIXa in the Xase complex (FVIIIa/PC-PS/Ca2+), fluorogenic Spectrafluor FXa assay was 50.7 nM; the kcat was determined as 6.4 s⁻¹.

B7: FIXa-R318Y/R338E/R403E/E410N (protein)
chain 1: not shown
chain 2: not shown
As for B7, the “% of WT kcat/KM” value was 262% and 320%; the KM stood at 43.2 nM; the KM for FX activation by FIXa in the Xase complex (FVIIIa/PC-PS/Ca2+), fluorogenic Spectrafluor FXa assay worked out at 45.5 nM; the kcat was determined as 5.8 s⁻¹. The kcat/KM came out at 1.2e+08 M⁻¹ s⁻¹.

B8: FIXa-Y155F/R318Y/R338E/R403E/E410N (protein)
chain 1: not shown
chain 2: not shown
B8: the “% of WT kcat/KM” value is 418% and 406%; the KM was determined as 30.4 nM; the KM for FX activation by FIXa in the Xase complex (FVIIIa/PC-PS/Ca2+), fluorogenic Spectrafluor FXa assay worked out at 30.4 nM; the kcat is 5.3 s⁻¹.

B9: FIXa-A103N/N105S/R318Y/R338E/R403E/E410N (protein)
chain 1: not shown
chain 2: not shown
In the case of B9, the “% of WT kcat/KM” value was 327% and 318%; the KM was found to be 44.7 nM; the KM for FX activation by FIXa in the Xase complex (FVIIIa/PC-PS/Ca2+), fluorogenic Spectrafluor FXa assay was found to be 44.7 nM; the kcat was 5.4 s⁻¹.

B10: FIXa-R318Y/R338E/Y345A/N346D/R403E/E410N (protein)
chain 1: not shown
chain 2: not shown
For the protein B10, the KM was 56.5 nM and the kcat stood at 1.2 s⁻¹.

B11: FIXa-D203N/F205T/R318Y/E410N (protein)
chain 1: not shown
chain 2: not shown
As to B11, the “% of WT kcat/KM” value is 88% and 85%; the KM turned out to be 45.7 nM; the KM for FX activation by FIXa in the Xase complex (FVIIIa/PC-PS/Ca2+), fluorogenic Spectrafluor FXa assay worked out at 45.7 nM; the kcat worked out at 1.6 s⁻¹.

B12: FIXa-D104N/K106S/R318Y/R338E/R403E/E410N (protein)
chain 1: not shown
chain 2: not shown
In the case of B12, the “% of WT kcat/KM” value was 377% and 366%; the KM was determined as 38.5 nM; the KM for FX activation by FIXa in the Xase complex (FVIIIa/PC-PS/Ca2+), fluorogenic Spectrafluor FXa assay came out at 38.5 nM; the kcat was found to be 5.7 s⁻¹.
